In the nanobody polyreactivity screen of Harvey et al. (2022):

Assay: yeast display, Sf9 membrane polyspecificity reagent, FACS + sequencing; frameworks hold sequencing errors
Summary of the method: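 Using colony PCR, genes from sorted yeast display clones were amplified, then sequenced on MiSeq at 2 × 250 and filtered by CDR length. The clones had been stained with 10% biotinylated, detergent-solubilized Sf9 membrane reagent for 1 hour at 4 °C and sorted by FACS into low and high (top ~1%) gates on anti-HA and streptavidin fluorescence. Polyreactivity labels come from the gate of origin.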

Row | Sequence | polyreactivity (PSR sort gate)
1 | QVQLQESVGGLVQAGGSLRLSCAASGTIFWGDDMGWYRQAPGKERELVASINDGSITYYADSVKGRFTISRDNAKNTVYLQMNSLKPEDTAVYYCAVRIAVVKSYLIYNYWGQGTQVTVSS | high polyreactivity
2 | QVQLVESGGGLVQAGGSLRLSCAASGSIFRDNVMGWYRQAPGKERELVAAISKRGGSTYYADSVKGRFTISRDNAKNTVYLQMNSLKPEDTAVYYCAAPQGRSHYYRYDYWGQGTQVTVSS | high polyreactivity
3 | QVQLGESGGGLVQAGGSLRLSCAGTGIIFARYVMGWEREAPGQDRELVAAIRRSGHSTYADSVKGRFTISRYNATNTLYLHMNSLKPEETAVYYCNAKGWISGRYSPYYRFDYWGQGTQVTVSS | high polyreactivity
4 | QVQLVESGGGLVQAGGSLRLSCAASGFILLDYAMGWYRQAPGKERELVAAISWSGARTYYADSVKGRFTISRDNAKNTVYLQMNSLKPEDTAVYYCAAKGQRGYWWGFDYWGQGTQVTVSS | low polyreactivity
5 | QVQLVESGGGLVQAGGSLRLSCAASGLIFYYYAMGWYRQAPGQERELVAAITSDDRTYYADSVKGRFTISRDNAKNTVYLQMNSLKPEDTAVYYCAARYHGYLPQYRKYGYGYWGQGTQVTVSS | high polyreactivity
6 | QVQLVESGGGLVQAGGSLRLSCAASGSIFAPNAMGWYRQAPGKERELVAAISRSGGRTYYADSVKGRFTISRDNAKNTVYFQMNSLKPEDTAVYYCAADYKHQRTYGSWGQGTQVTVSS | high polyreactivity
7 | QLQLVESGGGLVQAGGSLRLSCAASGNTFLLNAMGWYRQAPGKERELVAGIRWGAGRSYYADSVKGRFTISRDNAMNTVYVQMNSLKAEDTAVYSGAADPWSGSDYWGQGTQVTVSS | low polyreactivity
8 | QVQLVESGGGLVQAGGSLRLSCAASGRIFYSYAMGGYRQAPGKERELVATITNGGSTNYADSVKGRFTISRDNAKNTVYLQMNSLKPEDPAVYYCATDQFTRSVDFDYWGQGTQVTVSS | high polyreactivity
9 | QVQLVESGGGLVQAGGSLRLSCAASGSTFKRYAMGWYRQAPGKERELVASISRSGGSTYYADSVKGRFTISRDNAKNTVYLQMNSLKPEDTAVYYCNARNRVYYTLSGYGYWGQGTQVTVSS | high polyreactivity
10 | QVQLVESGGGLVQAGGSLRLICAASGSTFDYYAMGWYRQAPGKERELVAAISRRGGNTYYADSVKGRFTISRDNAKNTVYLQMNSLKQEDTAVYYCAAQTYKWYDWGHGTQVTVSS | high polyreactivity
11 | QLQLVESGGGLVQAGGSLRLSCSASGGTFYRNAMGWSRQAPGKESELVPSISRTGGSTYYADSVKGRFTISRDNAKNTVYLQMNILKPEDTAVYYCANKQPRYSYFDNDYWGQGTQVTVSS | high polyreactivity
12 | QVQLVESGGGLVQAGGSLRFSCAASGRTSRYYAMRWYRQAPGKERELVAGISTGGSTYYADSVKGRFTISRDNAKNTVYLQMKSLKPEDTAVYYCAAKYTRTNYYYWYYRMDFWGQGTQVTVSS | low polyreactivity
13 | QVQLVESGGGLVQAGGSLRLSCAASGRIFYQYAMGWYRQAPGKERELVAAISWSGGNTYYADSVKGRFTISRDNAKKTVYFQMNSLKPEDPAVYYCNRYWYRDRLWLYDYWGQGTQVTVSS | high polyreactivity
14 | QVQLVESGGGLVQAGGSLRLSCAASGRTFRWYAMGWYRQAPGKERELVATITSGGSTNYADSVKGRFTISRDNAKNSVYLQMNSLKPEDTAVYYCAAWSYAYYYRLRYVSHDYWGQGTQVTVSS | high polyreactivity
15 | QVQLVESGGGLVQAGGSLRLSCAASGRTSKYYAMGWYRQAPGKERELVAAITGTGGSTYYADSVKGRFTISRDNAKNTVYLQMNSLKPEDTAVYYCAALRKSYTYDSWGQGTQVTVSS | high polyreactivity
16 | QVQLVESGGGLVQAGGSLRLSCAASGFISYENAMGWYRQAPGKERELVAAISSGGSTNYADSVKGRFTISRDNAKNTVYFQMNSLKPEDTAVYYCAATLPGWYNEDDSWGQGTQVTVSS | low polyreactivity
17 | QDQLVESGGGLVQAGGSLRLSCAASGSTFVKYAMGWYRQAPGKERELVAAITKGGGSTYYADSVKGRFTISRDNAKNTVYLQMNSLKPEDTAVYYCNTSPHYRYGMDYWGQGTQVTVSS | high polyreactivity
